This passage reports Kd results from publication PMC2680711.

The test concerns the target Alexa-546-labeled H3-H4(E63C) (UniProt P61830). In words: other fluorescence titration.

Chain of Vps75_(1−223) (Vps75 lacking the C-terminal acidic domain) (P53853 1-223): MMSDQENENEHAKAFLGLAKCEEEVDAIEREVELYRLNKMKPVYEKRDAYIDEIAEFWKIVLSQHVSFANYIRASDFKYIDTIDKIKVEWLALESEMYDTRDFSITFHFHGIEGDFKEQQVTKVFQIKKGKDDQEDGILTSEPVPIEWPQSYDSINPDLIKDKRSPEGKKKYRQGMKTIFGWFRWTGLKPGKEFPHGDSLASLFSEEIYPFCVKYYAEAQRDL

On to “Rtt109 (recombinant, purified) (from UniProt Q07794 1-436) (enzyme)”, for which the Kd – broadly, the equilibrium constant for the complex coming apart – is 150 nM.
The figure for “Vps75_(1−223) (Vps75 lacking the C-terminal acidic domain) (from UniProt P53853 1-223) (domain or fragment)” is 13 nM.
